Results reported in the supplement of paper PMC10567573.
± gives the standard deviation.

Assay: protein stability index of a GFP-peptide fusion (GPS, HEK-293T) (PSI 1-6); higher = more stable
Conditions: c terminus: a fixed tail appended
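Note: 24-mer peptide tiles fused after GFP, lentivirally expressed, FACS-sorted into six equal bins by GFP/DsRed ratio, decoded by Illumina sequencing, PSI is the read-weighted mean bin number.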

Sequence | protein stability index (treatment: DMSO) | protein stability index (treatment: MLN4924 1 uM, 8 h)
DSLWHRSDSAPRNKISRFQAPISA [MFF] | 3.43 ± 0.45 | 3.41 ± 0.19
TWHDERFLYMLMEYVPGGELFSYL [PRKX] | 2.85 ± 0.7 | 2.75 ± 0.35
PVAAATAAEGEGSPPAVAAVAGPP [ANKRD17] | 5.54 ± 0.19 | 5.54 ± 0.094
PESDILQPVPNTTEPDYKSKDWVF [STK38L] | 4.45 ± 0.32 | 4.55 ± 0.19
EAAYLKILESSQTLLSVLKREAGN [SSNA1] | 2.39 ± 0.13 | 2 ± 0.26
FETQMKTLAQFPETLLGDPEKRTQ [KCNA4] | 4.79 ± 0.16 | 4.84 ± 0.21
NFSVDRWERKEGGGGISCVLQDGC [CPOX] | 3.8 ± 0.2 | 3.8 ± 0.33
KQYKAVVYSNTIQSIIAIIRAMGR [GNAI1] | 1.95 ± 0.32 | 2.21 ± 0.052
FIDKEDLKDTYASLGKTNVKDDEL [MYL5] | 4.8 ± 0.15 | 4.92 ± 0.19
IPPKEFHFRHPKRSVSLSMRKSGA [BNIP3L] | 3.37 ± 0.34 | 3.77 ± 0.34
ATGPMGMRGFKGDRGPKGEKGEKG [SCARA5] | 5.22 ± 0.24 | 5.43 ± 0.34
HVPTVWAIDQYRVCQEVLERSRDV [RHOBTB1] | 2.83 ± 0.22 | 3.08 ± 0.3
DNHMSDKDESCYDNAEAAFSDDEE [INTS3] | 5.55 ± 0.18 | 5.29 ± 0.38
TLVQDLANAFQQEAQTSGKERLLL [CHIT1] | 3.16 ± 0.3 | 2.91 ± 0.19
LIGDFSKGYLFHTVAGKHQDLKYI [CDC25A] | 2.02 ± 0.32 | 1.81 ± 0.43
HTRSWAVLKLLLLLLLFGVAGGLV [LRRC59] | 2.56 ± 0.44 | 2.44 ± 0.35
DRPRCCLRGKECCINRFQQVESRW [BTBD1] | 2.89 ± 0.32 | 3.06 ± 0.38
LPVVNAVGEIVGIITRHNLTYEFL [CLCN6] | 3.07 ± 0.43 | 2.75 ± 0.66
GFALDILFAIANGFSPSYEFFAVT [SLC22A15] | 3.3 ± 0.042 | 3.29 ± 1.1
EACLVAQCDALIDALNRRKAQLLA [TRIM9] | 2.46 ± 0.29 | 2.65 ± 0.44
KESLETPSNGRIDIKQLIAKKIKL [SOAT1] | 2.55 ± 0.14 | 2.94 ± 0.27
LRLPMLNTEVVQVAAGRTQKAGVT [NEK8] | 3.1 ± 0.33 | 3.47 ± 0.23

Sequence | protein stability index (treatment: DMSO) | protein stability index (treatment: MLN4924 1 uM, 8 h)
EGMDFHRFYFENLLAKNSKPIHTT [CAMK2B] | 2.52 ± 0.36 | 2.49 ± 0.31
SPSHKGIAAPHAGANVKPRNSTPP [ZC2HC1A] | 4.92 ± 0.092 | 4.86 ± 0.54
KVEEEIVTLRQVLAAKERHCGELK [TPD52L2] | 3.95 ± 0.3 | 4.21 ± 0.14
FIMDSCDELIPEYLNFIRGVVDSE [HSP90AB1] | 2.37 ± 0.13 | 2.32 ± 0.32
SPWADGTPCGPAQACMGGRCLHMD [ADAMTS4] | 4.28 ± 0.21 | 4.47 ± 0.36
PETQLFWDKEPWFWHDTLTEQLWR [TLE6] | 2.7 ± 0.57 | 2.27 ± 0.36
RFGVRPKVTGYLISYSSMLGAVAG [MFSD9] | 2.58 ± 0.54 | 2.29 ± 0.31
NLVARHPLFSEDVVLKLFLSFSGS [SNX8] | 2.7 ± 0.58 | 2.33 ± 0.2
AKQRAKEAQERELRKREKAEEKER [LRRC59] | 5.45 ± 0.14 | 5.52 ± 0.36
PPRGRSEAPDSLNGPLGPSEASIA [SMG5] | 5.07 ± 0.27 | 5.12 ± 0.14
GFAVKALWGRTQEEAEELAKEMSV [GFOD1] | 4.24 ± 0.13 | 4.07 ± 0.3
AKEVTIAKADTTSTVTPVPGQEKG [EHMT1] | 5.36 ± 0.28 | 5.52 ± 0.2
MDRRSRAQQWRRARHNYNDLCPPI [GNAS] | 2.92 ± 0.19 | 3.13 ± 0.3
LVFLITAILVKVQLDALPFFVITM [SLC29A1] | 3.06 ± 0.24 | 2.88 ± 0.39
GDSGFLVVRGGEVVHRSDEQQHYF [PPTC7] | 3.75 ± 0.41 | 3.54 ± 0.23
IDNAADLLIFGKELSAIGSDTTPL [SNX8] | 3.22 ± 0.12 | 3.18 ± 0.48
SGAEGHSHSCYHDTRSGFWYVCRT [TRIM35] | 2.45 ± 0.17 | 2.64 ± 0.24
LLNPNLKDTVICAMKITQEPQGLG [SPACA3] | 2.4 ± 0.4 | 2.51 ± 0.21
SSAPDLMCLSPDRKMEVEELSPLA [CDC25B] | 5 ± 0.37 | 5 ± 0.22
RYHRFISFALYLAGFCMFVLSLVK [CDS1] | 2.02 ± 0.21 | 2.08 ± 0.44
AALNALQPPEFRNESSLASTLKTL [VMA21] | 3.44 ± 0.2 | 3.51 ± 0.18
KQNARFLTSMRRLSSIKRDTNSIA [STX11] | 3.12 ± 0.25 | 3.21 ± 0.2
